Results taken from publication PMC10079162 (Nature Communications, 2023).
Positions count from the first letter of the chain named. Names may count otherwise.

B1: Nb.b201 WT (VHH)
VHH: QVQLQESGGGLVQAGGSLRLSCAASGYISDAYYMGWYRQAPGKEREFVATITHGTNTYYADSVKGRFTISRDNAKNTVYLQMNSLKPEDTAVYYCAVLETRSYSFRYWGQGTQVTVSS
notes: source: HEK293 cells; obtained at high purity
B2: Nb.b201 A31D T55G (VHH)
VHH: B1 VHH with A31D, T55G
notes: as for B1
B3: Nb.b201 T55D (VHH)
VHH: B1 VHH with T55D
notes: as for B1
B4: Nb.b201 A31D (VHH)
VHH: B1 VHH with A31D
notes: as for B1
B5: Nb.b201 T55G (VHH)
VHH: B1 VHH with T55G
notes: as for B1
B6: Nb.b201 H53P T55G (VHH)
VHH: B1 VHH with H53P, T55G
notes: as for B1
B7: Nb.b201 A31D T55D (VHH)
VHH: B1 VHH with A31D, T55D
notes: as for B1
B8: Nb.b201 H53P (VHH)
VHH: B1 VHH with H53P
notes: as for B1
B9: Nb.b201 H53R (VHH)
VHH: B1 VHH with H53R
notes: as for B1
B10: CR3022 M40P S56G Q67R; T59K (output_8) (antibody, V domains shown)
VH: QMQLVQSGTEVKKPGESLKISCKGSGYGFITYWIGWVRQPPGKGLEWMGIIYPGDGETRYSPSFQGRVTISADKSINTAYLQWSSLKASDTAIYYCAGGSGISTPMDVWGQGTTVTVVS
VL: not shown

Molecular target: T1, human serum albumin (Homo sapiens, UniProt P02768)
T1 construct: also called HSA
Test: BLI; format and conditions not told in the main text (methods are in the Supplementary Materials)
Conditions: both partners purified

Binder | binding result
B1 | binds
B2 | binds
B3 | binds
B4 | binds
B5 | binds
B6 | binds
B7 | binds
B8 | binds
B9 | binds

Molecular target: SARS CoV-2 RBD (SARS-CoV-2, strain  …, UniProt P0DTC2)
Test: not given
Conditions: not given

Binder | binding result
B10 | binds
